Measurements as given in patent US20090130134A1, “T CD4+ Epitopes of Type I and II Latency Antigens of the Epstein-Barr Virus, Which Can Be Recognized by the majority of individuals in the caucasian populations and applications thereof” (priority 2005, published 2009).

T1: HLA-DP4 (DPB1*0402) (human), P20036
T1 chain 1: not shown
T1 chain 2: not shown

T2: HLA-DP4 (DPB1*0401) (human), P20036
T2 chain 1: not shown
T2 chain 2: not shown


How the values were obtained:
[1] = molecular target: HLA-DR15 (human); experiment: competition ELISA, tracer A3 152-166
[2] = molecular target: HLA-DR7 (human); experiment: competition ELISA, tracer YKL
[3] = molecular target: T1, HLA-DP4 (DPB1*0402) (human), P20036; experiment: competition ELISA, tracer Oxy 271-287
[4] = molecular target: T2, HLA-DP4 (DPB1*0401) (human), P20036; experiment: competition ELISA, tracer Oxy 271-287
[5] = molecular target: HLA-DR11 (human); experiment: competition ELISA, tracer HA 306-318
[6] = molecular target: HLA-DR1 (human); experiment: competition ELISA, tracer HA 306-318
[7] = molecular target: HLA-DRB5 (human); experiment: competition ELISA, tracer not stated
[8] = molecular target: HLA-DR4 (human); experiment: competition ELISA, tracer HA 306-318

| Binder | IC50 [1] | IC50 [2] | IC50 [3] | IC50 [4] | IC50 [5] | IC50 [6] | IC50 [7] | IC50 [8] |
| --- | --- | --- | --- | --- | --- | --- | --- | --- |
| ALWNLHGQALFLGIVL (modifications not checked) [A16L] | 48 nM | 122 nM | 725 nM | 1180 nM | 11000 nM | 79 nM | 2680 nM |  |
| DPHLPTLLLGTSGSGGDDDDPHGPVQLSYYD (modifications not checked) [D31D] | 251 nM | 27500 nM | 28300 nM |  | 25000 nM | 17300 nM |  |  |
| ASSYAAAQRKLLTPV (modifications not checked) [A15V] | 26500 nM | 1730 nM |  |  | 4 nM | 1200 nM | 463 nM | 35500 nM |
